Experimental findings from patent publication US20210122826A1 (MIT, published 2021) are described below.

The labels stand for the following.
T1: cynomolgus CD161 (cynomolgus)
T1 construct: UniProt A0A2K5WYI1; also called cynoCD161
T1 chain: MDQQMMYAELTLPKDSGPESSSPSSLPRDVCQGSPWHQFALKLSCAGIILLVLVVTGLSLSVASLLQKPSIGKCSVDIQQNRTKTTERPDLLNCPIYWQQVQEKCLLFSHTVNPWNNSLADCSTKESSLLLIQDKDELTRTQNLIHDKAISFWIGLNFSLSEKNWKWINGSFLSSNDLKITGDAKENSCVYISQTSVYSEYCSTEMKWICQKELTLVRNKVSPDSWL

T2: Human KLRF2 (human, UniProt D3W0D1 1-207)
T2 construct: also called hKLRF2
T2 sequence: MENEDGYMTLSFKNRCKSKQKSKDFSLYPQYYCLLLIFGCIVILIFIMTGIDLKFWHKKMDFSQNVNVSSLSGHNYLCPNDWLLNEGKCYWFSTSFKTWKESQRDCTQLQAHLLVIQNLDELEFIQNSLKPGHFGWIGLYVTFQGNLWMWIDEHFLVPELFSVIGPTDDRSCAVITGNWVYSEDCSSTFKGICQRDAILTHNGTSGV

T3: Human Clec12B (human, UniProt Q2HXU8 1-276)
T3 construct: also called hClec12B
T3 sequence: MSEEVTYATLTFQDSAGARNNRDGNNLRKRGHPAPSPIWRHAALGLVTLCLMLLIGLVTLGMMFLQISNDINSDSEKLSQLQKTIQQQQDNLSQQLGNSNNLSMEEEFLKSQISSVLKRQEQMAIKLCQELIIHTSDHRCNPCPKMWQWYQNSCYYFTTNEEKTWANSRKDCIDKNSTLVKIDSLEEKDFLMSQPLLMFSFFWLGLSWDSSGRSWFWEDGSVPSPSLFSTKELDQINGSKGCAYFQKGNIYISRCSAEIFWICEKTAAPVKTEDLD

T4: Human KLRF1 (human, UniProt Q9NZS2 1-231)
T4 construct: also called hKLRF1
T4 sequence: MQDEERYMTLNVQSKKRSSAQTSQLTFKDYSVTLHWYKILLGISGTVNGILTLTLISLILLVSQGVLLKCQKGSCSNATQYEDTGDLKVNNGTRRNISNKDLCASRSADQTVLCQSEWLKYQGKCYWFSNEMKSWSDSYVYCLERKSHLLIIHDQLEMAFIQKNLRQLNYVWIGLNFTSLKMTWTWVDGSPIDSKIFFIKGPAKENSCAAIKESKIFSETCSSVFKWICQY

T5: Human KLRG1 (human, UniProt Q96E93 1-195)
T5 construct: also called hKLRG1
T5 sequence: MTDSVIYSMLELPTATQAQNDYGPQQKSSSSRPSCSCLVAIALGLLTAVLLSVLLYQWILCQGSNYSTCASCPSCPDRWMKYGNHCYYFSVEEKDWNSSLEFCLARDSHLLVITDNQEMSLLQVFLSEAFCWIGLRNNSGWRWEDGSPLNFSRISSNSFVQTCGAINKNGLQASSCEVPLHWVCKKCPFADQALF

T6: Human Clec5A (human, UniProt Q9NY25 1-188)
T6 construct: also called hClec5A
T6 sequence: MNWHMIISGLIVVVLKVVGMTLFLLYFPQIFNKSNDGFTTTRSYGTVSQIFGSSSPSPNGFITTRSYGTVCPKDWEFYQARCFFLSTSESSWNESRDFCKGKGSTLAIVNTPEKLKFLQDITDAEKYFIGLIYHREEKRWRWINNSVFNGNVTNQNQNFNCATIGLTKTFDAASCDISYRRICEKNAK

B1: KW9.3.3 (antibody, V domains shown)
VH: EVQLVESGGGLVQPGGSLRLSCAASGFTFSSYAMSWVRQAPGKGLEWVSAISGSGGRTYYADSVKGRFTISRDNSKNTLYLQMNSLRAEDTAMYYCARGPGYMYLYGDSFFEYWGQGTLVTVSS
VL: DIQMAQSPSSLSASVGDRVTITCRASQGISSYLNWYQQKPGKAPKLLIYAASSLQSGVPSRFSGSGYGTDFTLTISSLQPEDFATYYCQQSYSTPLTFGQGTKVEIK
B2: anti-CD161 KW17 (antibody, V domains shown)
VH: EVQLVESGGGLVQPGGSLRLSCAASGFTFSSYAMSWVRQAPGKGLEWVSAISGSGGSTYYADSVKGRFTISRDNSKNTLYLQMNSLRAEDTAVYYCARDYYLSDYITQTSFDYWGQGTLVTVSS
VL: QSVLTQPPSVSGAPGQRVTISCTGSSSNIGAGYDVHWYQQLPGTAPKLLIYGNSNRPSGVPDRFSGSKSGTSASLAITGLQAEDEADYYCQSYDSSHTVFGGGTQLTVL
notes: Human, lambda light chain; scFv-Fc or full IgG not clear; also called KW17-Fc
B3: KW17.3.4 (antibody, V domains shown)
VH: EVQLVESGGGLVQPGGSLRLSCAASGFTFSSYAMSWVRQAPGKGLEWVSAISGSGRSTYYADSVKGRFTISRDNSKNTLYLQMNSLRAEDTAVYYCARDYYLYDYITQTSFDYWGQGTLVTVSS
VL: B2 VL with K68Q, D94N, S96G
B4: KW1.2.1 (antibody, V domains shown)
VH: EVQLVESGGGLVQPGGSLRLSCAASGSTFSSYAMSWVRQAPGKGLEWVSTISGSGGSTYYADSVKGRFTISRDNSRNTLYLQMNSLRAEDTAVYYCARGGLIPSGFDYWGQGTLVTVSS
VL: B1 VL with A5T, L11P, G28S, Q55L, Y67S, S91T
B5: KM12.2.3 (antibody, human IgG1, V domains shown)
VH: EVQLVESGGGLVQPGGSLRLSCAASGFTFSSYAMSWIRQAPGKGLEWVSAISGSGGSIYYADSVKGRFTISRDNSKNTLYLQMNSLRAEDTAVYYCARGYSDSYFYGPYYTFDYWGQGTLVTVSS
VL: B1 VL with A5T, P59S, Y67S, S93N
B6: KW1.3.12 (antibody, human IgG1, V domains shown)
VH: B4 VH with S27F
VL: B1 VL with A5T, G28S, Q55L, Y67S, S91T, T94A
B7: KM12.4.7 (antibody, V domains shown)
VH: B5 VH with S21P, N84D
VL: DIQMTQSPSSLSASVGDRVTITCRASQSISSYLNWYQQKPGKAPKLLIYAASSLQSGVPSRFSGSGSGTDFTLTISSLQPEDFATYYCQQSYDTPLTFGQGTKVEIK
B8: KW7.3.7 (antibody, V domains shown)
VH: B4 VH with S27F, T50A, I51T, V64A, R76K, L101Y, I102L, S104D, G105A, Q111R
VL: B1 VL with A5T, R24W, G28S, K39E, Y67S, S91T
B9: KW7.2.2 (antibody, V domains shown)
VH: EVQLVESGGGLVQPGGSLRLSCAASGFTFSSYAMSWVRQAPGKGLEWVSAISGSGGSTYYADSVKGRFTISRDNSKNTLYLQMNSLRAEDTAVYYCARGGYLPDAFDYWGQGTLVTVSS
VL: B1 VL with A5T, G28S, K45R, L46F, Y67S, S91T

Where a chain is given by its changes, count along the chain named.

The first test has as its target T1, cynomolgus CD161. The experiment in a line: flow, Jurkat.
Turning to B1, the binding result is recorded as “no binding (tested: 100 nM)”.

Take B2: the binding result was “no binding (tested: 100 nM)”.

Consider B3, for which the binding result was “no binding (tested: 100 nM)”.

Another test has as its target T2, Human KLRF2. The experiment in a line: flow, Jurkat.
For B4, the binding result is “no binding (tested: 100 nM)”.

Take B5: the binding result is reported as “no binding (tested: 100 nM)”.

For the molecule B6, the binding result was “no binding (tested: 100 nM)”.

B7: the binding result is listed as “no binding (tested: 100 nM)”.

With B8, the binding result is listed as “no binding (tested: 100 nM)”.

In the case of B9, the binding result is “no binding (tested: 100 nM)”.

B1: the binding result is on record as “no binding (tested: 100 nM)”.

With B2, the binding result is reported as “no binding (tested: 100 nM)”.

For the molecule B3, the binding result is “no binding (tested: 100 nM)”.

In the next test the target is T3, Human Clec12B. The experiment in a line: flow, Jurkat.
With B4, the binding result was “no binding (tested: 100 nM)”.

As for B5, the binding result is listed as “no binding (tested: 100 nM)”.

In the case of B6, the binding result is “no binding (tested: 100 nM)”.

As for B7, the binding result is “no binding (tested: 100 nM)”.

With B8, the binding result is “no binding (tested: 100 nM)”.

On to B9, for which the binding result was “no binding (tested: 100 nM)”.

For B1, the binding result is recorded as “no binding (tested: 100 nM)”.

Turning to B2, the binding result is “no binding (tested: 100 nM)”.

Turning to B3, the binding result is “no binding (tested: 100 nM)”.

Another test addresses T7, Human OLR1 (human, UniProt P78380 1-273).
T7 construct: also called hOLR1
The test can be described thus: flow, Jurkat.
With B4, the binding result is “no binding (tested: 100 nM)”.

Turning to B5, the binding result is “no binding (tested: 100 nM)”.

Take B6: the binding result was “no binding (tested: 100 nM)”.

For B7, the binding result is “no binding (tested: 100 nM)”.

As to B8, the binding result is reported as “no binding (tested: 100 nM)”.

For B9, the binding result was “no binding (tested: 100 nM)”.

With B1, the binding result is listed as “no binding (tested: 100 nM)”.

Take B2: the binding result was “no binding (tested: 100 nM)”.

As for B3, the binding result was “no binding (tested: 100 nM)”.

The target in a further test is T8, human CD161 (human, UniProt Q12918 1-225).
T8 construct: UniProt Q12918; also called hCD161; KLRB1
The test can be described thus: flow, Jurkat, Ab titration.
On to B4, for which the “fold binding vs HP-3G10” value is ~10 fold.

Take B6: the “fold binding vs HP-3G10” value was ~10 fold.

B7: the “fold binding vs HP-3G10” value was ~10 fold.

For B9, the “fold binding vs HP-3G10” value is ~10 fold.

In the next test the target is T1, cynomolgus CD161. The test can be described thus: flow, Jurkat, Ab titration.
Turning to B4, the “fold binding vs HP-3G10” value is ~10 fold.

In the case of B6, the “fold binding vs HP-3G10” value is ~10 fold.

As for B7, the “fold binding vs HP-3G10” value is ~10 fold.

With B9, the “fold binding vs HP-3G10” value was ~10 fold.

The next test has as its target T8, human CD161. The test can be described thus: flow, Jurkat, 100 nM Ab.
Take B2: the “MFI normalized to WT” value stood at 53.9.

For another test, the target named is T4, Human KLRF1. The test can be described thus: flow, Jurkat, 100 nM Ab.
Turning to B2, the “MFI normalized to WT” value is 0.89.

The next test has as its target T3, Human Clec12B. The experiment in a line: flow, Jurkat, 100 nM Ab.
With B2, the “MFI normalized to WT” value amounted to 1.04.

The target of a further test is T5, Human KLRG1. The test can be described thus: flow, Jurkat, 100 nM Ab.
In the case of B2, the “MFI normalized to WT” value is 1.05.

The next test concerns the target T7, Human OLR1. The test can be described thus: flow, Jurkat, 100 nM Ab.
Turning to B2, the “MFI normalized to WT” value is 0.98.

The next test addresses T6, Human Clec5A. The test can be described thus: flow, Jurkat, 100 nM Ab.
Regarding B2, the “MFI normalized to WT” value stood at 1.04.

Another test deals with T8, human CD161. The experiment in a line: flow, Jurkat, Ab titration. The source holds these as a separate data set. The procedure:
(§1) To measure binding, Jurkat cells expressing hCD161 or cynoCD161 were incubated with 0.01 nM to either 0.1 μM or 0.3 μM anti-CD161 antibodies as listed in Table 12. Jurkat cells expressing cynoCD161 were prepared using the methods described in Example 7. Volumes were sufficiently large such that ligand was depleted less than 10%. Following a three-hour incubation on ice, cells were washed and stained with fluorescent anti-human secondary antibody. The cells were washed, and labeling of antibody binding was assessed by flow cytometry to determine the MFI as a function of anti-CD161 antibody concentration. Raw MFI (top panel) and MFI normalized to the maximum value in each dataset (bottom panel) are shown for binding to hCD161 (FIG. 7C) and to cynoCD161 (FIG. 7D).
In turn, B4 returned a Kd of 0.233 nM.

Consider B6, for which binding was put at a Kd of 0.249 nM.

B7: the Kd was determined as 0.0925 nM.

The molecule B9 showed a Kd of 0.207 nM.

The next test deals with T1, cynomolgus CD161. The test can be described thus: flow, Jurkat, Ab titration. The source holds these as a separate data set. On the procedure: as §1
In the case of B4, the Kd worked out at 0.247 nM.

B6 yielded a dissociation constant Kd of 0.274 nM.

As for B7, the Kd was 0.225 nM.

As to B9, the Kd was 0.24 nM.

The next test has as its target T8, human CD161. The test can be described thus: flow cytometry titration of soluble IgG on Jurkat hCD161+ cells, fluorescent secondary antibody, MFI against Ab concentration (log [M]). The procedure:
as §1
Background: In flow cytometry, cells or beads pass a laser one at a time.
For B4, the “EC50 (read off the curve)” value is ~0.2 nM.

Take B6: the “EC50 (read off the curve)” value is ~0.4 nM.

With B7, the “EC50 (read off the curve)” value is ~0.09 nM.

For B9, the “EC50 (read off the curve)” value was ~0.2 nM.

A further test deals with T1, cynomolgus CD161. The test can be described thus: flow cytometry titration of soluble IgG on Jurkat cynoCD161+ cells, fluorescent secondary antibody, MFI against concentration (log [M]). On the procedure:
as §1
In the case of B6, the “EC50 (read off the curve)” value was ~0.3 nM.

As for B7, the “EC50 (read off the curve)” value was ~0.2 nM.

In general, Kd refers to the constant that tells how readily two partners part at equilibrium. A low value points to higher affinity. Usually EC50 (read off the curve) stands for the midpoint of the concentration-response curve. The low end stands for higher potency in that assay, the high end for lower potency in that assay.
